The target of the data set is T1, N^α-benzoylated peptides of SEQ ID NOs: 2-18 (Rattus norvegicus, UniProt P00763, D194K/E154H/K66E/N146H).
T1 construct: made in house; host or cells: E. coli or yeast (general procedure; the host actually used is not fixed)
T1 sequence (P00763 24-246 K66E/N146H/E154H/D194K): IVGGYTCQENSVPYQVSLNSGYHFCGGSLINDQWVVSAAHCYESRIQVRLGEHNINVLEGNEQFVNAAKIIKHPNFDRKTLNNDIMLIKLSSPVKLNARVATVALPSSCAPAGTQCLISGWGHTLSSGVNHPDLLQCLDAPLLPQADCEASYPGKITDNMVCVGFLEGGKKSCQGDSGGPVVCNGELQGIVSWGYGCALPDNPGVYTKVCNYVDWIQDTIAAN
The data set can be described thus: Influence of the recognition sequence on the rate of reaction catalyzed by the trypsin variant (HPLC, peptide consumption). The conditions noted are these: 1 mM peptide, 20 μM trypsin variant, 100 μM ZnCl2, 0.1 M Pipes/Tris-buffer pH 8.0, 30° C. It is filed as biochemical. An excerpt: Variant trypsin according to the present invention has been tested for catalytic activity upon peptide substrates with different peptide sequences at or close to the cleavage site. The initial rate (v) of peptide consumption is given in nM/min
The N^α-benzoylated peptides of SEQ ID NOs: 2-18 have been synthesized by conventional solid-phase peptide synthesis using Fmoc-chemistry and a preloaded Wang-resin. The respective amino acid building blocks are commercially available and were purchased from various suppliers.
1 ml reaction volume containing 1 mM N^α-benzoylated peptide dissolved in 0.1 M Pipes/Tris-buffer pH 8.0; 20 μM trypsin variant Tn K60E, E151H, N143H, D189K; 100 μM ZnCl2 was stirred at 30° C. After defined time intervals, the reactions were terminated by adding of 1% trifluoroacetic acid in methanol/water (1:1, v/v). The quenched reaction mixtures were analyzed by analytical HPLC. The identity of the final products was verified by mass spectroscopy.

The text below walks through data of US8927230B2, “C-terminal modification of polypeptides” (EUCODIS Bioscience GmbH, priority 2004, dated 2015).

B1: Tn K60E, E151H, N143H, D189K: mutated anionic rat trypsin II, without signal sequence and pro-sequence (SEQ ID NO: 1), with K60E, N143H, E151H, D189K (protein)
chain: T1 sequence (P00763 24-246 K66E/N146H/E154H/D194K)
As for B1, the “cleavage site preference (substrate specificity from initial rates of peptide consumption, FIG. 4)” value was “strong preference for a cleavage site comprising L, F or Y in position P1, R or K in position P1′ and His in position P2′”.
